System: Escherichia coli TOP10
Assay: shrunken log2 fold change of peptide-encoding DNA abundance (4.5 h post-induction vs induction); higher = less antimicrobial activity (less host growth inhibition)
Settings: time post-induction: 4.5 h; library: site-saturation at positions 5, 18, 19, 20
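Note: peptides expressed intracellularly from a pBAD plasmid library in pooled LB shake-flask culture, induced with 0.3% L-arabinose, DNA abundance read by NGS, three biological replicates, DESeq2 with apeglm shrinkage.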

RRIRYRPPRLPRPRPRPVLEPRP
shrunken log2 fold change: -0.0835

RRIRYRPPRLPRPRPRPVLRPRP
shrunken log2 fold change: 0.124

RRIRYRPPRLPRPRPRPVMDPRP
shrunken log2 fold change: -0.122

RRIRYRPPRLPRPRPRPVMGPRP
shrunken log2 fold change: -0.0133

RRIRYRPPRLPRPRPRPVRKPRP
shrunken log2 fold change: 0.195

RRIRYRPPRLPRPRPRPVRRPRP
shrunken log2 fold change: 0.0834

RRIRYRPPRLPRPRPRPVTCPRP
shrunken log2 fold change: -0.0508

RRIRYRPPRLPRPRPRPVTGPRP
shrunken log2 fold change: -0.213

RRIRYRPPRLPRPRPRPVTRPRP
shrunken log2 fold change: -0.129

RRIRYRPPRLPRPRPRPVVDPRP
shrunken log2 fold change: -0.0233

RRIRYRPPRLPRPRPRPVYSPRP
shrunken log2 fold change: 4.05

RRIRYRPPRLPRPRPRPWALPRP
shrunken log2 fold change: -0.355

RRIRYRPPRLPRPRPRPWFEPRP
shrunken log2 fold change: -0.2

RRIRYRPPRLPRPRPRPWFHPRP
shrunken log2 fold change: -0.17

RRIRYRPPRLPRPRPRPWFWPRP
shrunken log2 fold change: -0.0261

RRIRYRPPRLPRPRPRPWGKPRP
shrunken log2 fold change: -0.461

RRIRYRPPRLPRPRPRPWHNPRP
shrunken log2 fold change: -0.626

RRIRYRPPRLPRPRPRPWIIPRP
shrunken log2 fold change: -0.384

RRIRYRPPRLPRPRPRPWIPPRP
shrunken log2 fold change: -0.0119

RRIRYRPPRLPRPRPRPWITPRP
shrunken log2 fold change: -0.0192

RRIRYRPPRLPRPRPRPWKHPRP
shrunken log2 fold change: -0.0695

RRIRYRPPRLPRPRPRPWLLPRP
shrunken log2 fold change: -1.51

RRIRYRPPRLPRPRPRPWLVPRP
shrunken log2 fold change: -0.096

RRIRYRPPRLPRPRPRPWNEPRP
shrunken log2 fold change: -0.0429

RRIRYRPPRLPRPRPRPWNMPRP
shrunken log2 fold change: -0.186

RRIRYRPPRLPRPRPRPWQSPRP
shrunken log2 fold change: -0.121

RRIRYRPPRLPRPRPRPWRAPRP
shrunken log2 fold change: -0.142

RRIRYRPPRLPRPRPRPWRSPRP
shrunken log2 fold change: 0.175

RRIRYRPPRLPRPRPRPWTSPRP
shrunken log2 fold change: -0.039

RRIRYRPPRLPRPRPRPWVAPRP
shrunken log2 fold change: -0.481

RRIRYRPPRLPRPRPRPWYNPRP
shrunken log2 fold change: -0.764

RRIRYRPPRLPRPRPRPWYWPRP
shrunken log2 fold change: -0.0383

RRIRYRPPRLPRPRPRPYACPRP
shrunken log2 fold change: 0.00253

RRIRYRPPRLPRPRPRPYAEPRP
shrunken log2 fold change: -0.193

RRIRYRPPRLPRPRPRPYCLPRP
shrunken log2 fold change: -1.15

RRIRYRPPRLPRPRPRPYCTPRP
shrunken log2 fold change: -1.54

RRIRYRPPRLPRPRPRPYEEPRP
shrunken log2 fold change: -0.0354

RRIRYRPPRLPRPRPRPYEKPRP
shrunken log2 fold change: -0.117

RRIRYRPPRLPRPRPRPYFEPRP
shrunken log2 fold change: -0.58

RRIRYRPPRLPRPRPRPYGCPRP
shrunken log2 fold change: -0.143

RRIRYRPPRLPRPRPRPYILPRP
shrunken log2 fold change: -0.264

RRIRYRPPRLPRPRPRPYLLPRP
shrunken log2 fold change: -1.28

RRIRYRPPRLPRPRPRPYMKPRP
shrunken log2 fold change: -0.122

RRIRYRPPRLPRPRPRPYMYPRP
shrunken log2 fold change: -0.23

RRIRYRPPRLPRPRPRPYNDPRP
shrunken log2 fold change: -0.0979

RRIRYRPPRLPRPRPRPYPDPRP
shrunken log2 fold change: -0.0152

RRIRYRPPRLPRPRPRPYRLPRP
shrunken log2 fold change: -0.173

RRIRYRPPRLPRPRPRPYTCPRP
shrunken log2 fold change: -0.00145

RRIRYRPPRLPRPRPRPYTMPRP
shrunken log2 fold change: -0.301

RRIRYRPPRLPRPRPRPYVVPRP
shrunken log2 fold change: -0.24

RRIRYRPPRLPRPRPRPYVWPRP
shrunken log2 fold change: -0.389

RRIRYRPPRLPRPRPRPYWEPRP
shrunken log2 fold change: -0.0328

RRIRYRPPRLPRPRPRPYWQPRP
shrunken log2 fold change: -0.000687

RRIRYRPPRLPRPRPRPYWSPRP
shrunken log2 fold change: -0.0274

RRIRYRPPRLPRPRPRPYYFPRP
shrunken log2 fold change: -2.19

Source: the supplement of paper PMC9112550, “Optimization of the antimicrobial peptide Bac7 by deep mutational scanning” (BMC Biology, 2022)
